The values below come from US20100136007A1 (Five Prime, published 2010).

This test addresses T1, hCSF1R-ECD.506 (human, UniProt P07333 20-506).
T1 construct: also called hCSF1R.506; human CSF1R.506
Put plainly: SPR, Biacore. Here is the method:
The CSF1 and IL34 ligand binding affinity and kinetics of the hCSF1R.506-GS-Fc and hCSF1R.512-GS-Fc fusion proteins were determined using Biacore® X surface plasmon resonance (SPR) technology (Uppsala, Sweden). CSF1 and IL34 are the only two ligands known to interact with the CSF1R ECD. The CSF1 and IL34 binding experiments were carried out using methodology similar to that described in Lin et al., Science 320:807-811, (2008).
In order to compare the relative ligand binding affinity of hCSF1R.506 (SEQ ID NO:2) and hCSF1R.506-Fc (SEQ ID NO:6) proteins expressed in CHO cells to CSF1, a Biacore® assay was used.

T1 sequence (P07333 20-506 limits assumed): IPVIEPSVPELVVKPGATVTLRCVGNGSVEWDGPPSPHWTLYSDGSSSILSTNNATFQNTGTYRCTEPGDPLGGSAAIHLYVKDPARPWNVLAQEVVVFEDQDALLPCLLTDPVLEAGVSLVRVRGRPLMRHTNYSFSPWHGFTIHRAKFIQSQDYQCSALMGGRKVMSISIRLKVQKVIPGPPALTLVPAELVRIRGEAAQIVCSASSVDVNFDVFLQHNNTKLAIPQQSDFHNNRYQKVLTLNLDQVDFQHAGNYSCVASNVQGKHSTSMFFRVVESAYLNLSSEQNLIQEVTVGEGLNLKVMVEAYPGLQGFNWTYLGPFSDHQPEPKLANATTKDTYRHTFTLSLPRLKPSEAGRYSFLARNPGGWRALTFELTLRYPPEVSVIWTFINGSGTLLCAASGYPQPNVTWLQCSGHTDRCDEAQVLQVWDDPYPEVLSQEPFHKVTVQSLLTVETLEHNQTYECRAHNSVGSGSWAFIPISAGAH

B1: colony stimulating factor 1 ligand (CSF1) (ligand, UniProt P09603 33-190, looked up)
chain: EEVSEYCSHMIGSGHLQSLQRLIDSQMETSCQITFEFVDQEQLKDPVCYLKKAFLLVQDIMEDTMRFRDNTPNAIAIVQLQELSLRLKSCFTKDYEEHDKACVRTFYETPLQLLEKVKNVFNETKNLLDKDWNIFSKNCNNSFAECSSQDVVTKPDCN
notes: also called MCSF; MGC31930
For B1, the Kd – broadly, the free concentration of one partner at which half of the binding sites on the other are occupied at equilibrium, for simple one-to-one binding – was 28.9 nM; the off-rate constant (koff) (commonly the first-order rate constant of dissociation) is 0.000809 s⁻¹; the kon – broadly, the rate constant with which the complex forms – stood at 28000 M⁻¹ s⁻¹.
